From publication PMC11302681, “Structural Basis of Directional Switching by the Bacterial Flagellum” (Research Square, 2023)

B4: FliM (S. Typhimurium) (natural protein, UniProt P26418 1-334, looked up)
chain: MGDSILSQAEIDALLNGDSDTKDEPTPGIASDSDIRPYDPNTQRRVVRERLQALEIINERFARQFRMGLFNLLRRSPDITVGAIRIQPYHEFARNLPVPTNLNLIHLKPLRGTGLVVFSPSLVFIAVDNLFGGDGRFPTKVEGREFTHTEQRVINRMLKLALEGYSDAWKAINPLEVEYVRSEMQVKFTNITTSPNDIVVNTPFHVEIGNLTGEFNICLPFSMIEPLRELLVNPPLENSRHEDQNWRDNLVRQVQHSELELVANFADIPLRLSQILKLKPGDVLPIEKPDRIIAHVDGVPVLTSQYGTVNGQYALRVEHLINPILNSLNEEQPK
notes: FliM, flagellar motor switch protein of Salmonella enterica serovar Typhimurium; endogenous protein in basal bodies; The extreme N-terminus is disordered in both structures; also called FliMM; FliMC; source: endogenous, S. Typhimurium strains TH25455 (CCW locked) and TH25631 (CW locked), in purified basal bodies; copies: 34

Experiments:
[1] = molecular target: C. sporogenes MotB with C-terminal Twin-Strep tag (Clostridium sporogenes); assay: cryo-EM structure; C. sporogenes MotA1–262-FliG239–333 fusion co-expressed with MotB-Twin-Strep in E. coli, purified in LMNG; 2.4 Å map
[2] = molecular target: B4; assay: cryo-EM structure; intact flagellar basal bodies with C-rings from S. Typhimurium TH25631 (fliG-ΔPAA, CW locked), assembled in cells and purified on a sucrose gradient in Triton X-100; C34 class, symmetry expansion and local refinement around 3 subunits, 4.0 Å global; settings: both partners purified
[3] = molecular target: T1, FliF (S. Typhimurium, MS-ring protein) (S. Typhimurium (endogenous in strains …, UniProt P15928 1-560)); assay: as above; settings: both partners purified
T1 construct: FliF, flagellar M-ring protein of Salmonella enterica serovar Typhimurium; endogenous protein in basal bodies; only its C-terminus (residues 523–560) is described in the C-ring models; also called FliFC; FliF C-terminus; source: endogenous, S. Typhimurium strains TH25455 (CCW locked) and TH25631 (CW locked), in purified basal bodies
T1 sequence (looked up): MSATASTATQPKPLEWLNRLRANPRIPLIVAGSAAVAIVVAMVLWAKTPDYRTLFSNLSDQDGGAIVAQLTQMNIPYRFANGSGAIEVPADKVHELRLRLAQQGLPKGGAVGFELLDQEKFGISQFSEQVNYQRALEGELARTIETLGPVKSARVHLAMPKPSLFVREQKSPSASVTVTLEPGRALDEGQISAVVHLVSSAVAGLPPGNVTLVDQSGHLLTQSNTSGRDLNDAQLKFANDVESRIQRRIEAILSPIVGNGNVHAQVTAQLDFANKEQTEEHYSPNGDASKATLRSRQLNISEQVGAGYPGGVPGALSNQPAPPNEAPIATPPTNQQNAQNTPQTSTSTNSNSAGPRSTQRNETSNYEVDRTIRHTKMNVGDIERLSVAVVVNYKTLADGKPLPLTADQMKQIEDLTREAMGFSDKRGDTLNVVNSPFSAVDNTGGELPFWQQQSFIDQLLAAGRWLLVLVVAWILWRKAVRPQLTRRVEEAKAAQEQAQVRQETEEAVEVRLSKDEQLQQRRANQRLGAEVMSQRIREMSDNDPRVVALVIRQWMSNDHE

[4] = molecular target: the molecule itself; assay: as above
[5] = molecular target: C. sporogenes MotA5MotB2 stator complex (Clostridium sporogenes); assay: cryo-EM structure; C. sporogenes MotA1–262-FliG239–333 fusion co-expressed with MotB-Twin-Strep in E. coli, purified in LMNG; 2.4 Å map
[6] = molecular target: B4; assay: cryo-EM structure; intact flagellar basal bodies with C-rings from S. Typhimurium TH25455 (ΔcheY, CCW locked), assembled in cells and purified on a sucrose gradient in Triton X-100; C34 class, symmetry expansion and local refinement around 3 subunits, 3.6 Å global; settings: both partners purified
[7] = molecular target: T1, FliF (S. Typhimurium, MS-ring protein); assay: as above; settings: both partners purified
[8] = molecular target: the molecule itself; assay: as above
[9] = molecular target: the molecule itself; assay: cryo-EM structure; C. sporogenes MotA1–262-FliG239–333 fusion co-expressed with MotB-Twin-Strep in E. coli, purified in LMNG; 2.4 Å map

Molecule: C. sporogenes MotB with C-terminal Twin-Strep tag (natural protein)
- stoichiometry N [1]: 2

B1: FliG-ΔPAA (S. Typhimurium, CW-locking deletion of residues 169–171) (natural protein)
chain: MSNLSGTDKSVILLMTIGEDRAAEVFKHLSTREVQALSTAMANVRQISNKQLTDVLSEFEQEAEQFAALNINANEYLRSVLVKALGEERASSLLEDILETRDTTSGIETLNFMEPQSAADLIRDEHPQIIATILVHLKRSQAADILALFDERLRHDVMLRIATFGGVQLAELTEVLNGLLDGQNLKRSKMGGVRTAAEIINLMKTQQEEAVITAVREFDGELAQKIIDEMFLFENLVDVDDRSIQRLLQEVDSESLLIALKGAEPPLREKFLRNMSQRAADILRDDLANRGPVRLSQVENEQKAILLIVRRLAETGEMVIGSGEDTYV
notes: FliG of Salmonella enterica serovar Typhimurium with the CW-locking PAA deletion at residues 169–171; also called CW-locked mutant; source: endogenous locus mutant, S. Typhimurium strain TH25631 (CW locked), in purified basal bodies (sucrose gradient); copies: 34
- binding result [2]: binds
- binding result [3]: binds
- stoichiometry N [4]: 34

B2: C. sporogenes FliG C-terminal domain (residues 239–333, of the MotA1–262-FliG239–333 fusion) (domain or fragment)
chain: VFEDIITLDDVAIQRVLREVETKDLALALKGSSEEVANVIFRNQSKRAASSLKEDIEFLGPVRIMDVEKAQQGIVSIIRRLDEAGEIVISRGGED
- stoichiometry N [5]: < 3

B3: FliG (S. Typhimurium, wild type, in the CCW-locked C-ring) (natural protein, UniProt P0A1J9 1-331, looked up)
chain: MSNLSGTDKSVILLMTIGEDRAAEVFKHLSTREVQALSTAMANVRQISNKQLTDVLSEFEQEAEQFAALNINANEYLRSVLVKALGEERASSLLEDILETRDTTSGIETLNFMEPQSAADLIRDEHPQIIATILVHLKRSQAADILALFDERLRHDVMLRIATFGGVQPAALAELTEVLNGLLDGQNLKRSKMGGVRTAAEIINLMKTQQEEAVITAVREFDGELAQKIIDEMFLFENLVDVDDRSIQRLLQEVDSESLLIALKGAEPPLREKFLRNMSQRAADILRDDLANRGPVRLSQVENEQKAILLIVRRLAETGEMVIGSGEDTYV
notes: FliG, flagellar motor switch protein of Salmonella enterica serovar Typhimurium; endogenous protein in basal bodies; residues up to 331 are named; One FliG in each of the about 34 C-ring subunits (C34 is the dominant class); also called FliGN; FliGM; source: endogenous, S. Typhimurium strain TH25455 (CCW locked, ΔcheY), in purified basal bodies (sucrose gradient); copies: 34
- binding result [6]: binds
- binding result [7]: binds
- stoichiometry N [8]: 34

Molecule: B4
- binding result [8]: binds

B5: FliN (S. Typhimurium) (natural protein, UniProt P26419 1-137, looked up)
chain: MSDMNNPSDENTGALDDLWADALNEQKATTTKSAADAVFQQLGGGDVSGAMQDIDLIMDIPVKLTVELGRTRMTIKELLRLTQGSVVALDGLAGEPLDILINGYLIAQGEVVVVADKYGVRITDIITPSERMRRLSR
notes: FliN, flagellar motor switch protein of Salmonella enterica serovar Typhimurium; endogenous protein in basal bodies; Three copies of FliN in each C-ring subunit; also called FliN3; source: endogenous, S. Typhimurium strains TH25455 (CCW locked) and TH25631 (CW locked), in purified basal bodies
- stoichiometry N [6]: 3
- binding result [4]: binds

B6: C. sporogenes MotA (residues 1–262, of the MotA1–262-FliG239–333 fusion) (domain or fragment, Clostridium sporogenes, UniProt A0A7U4JQH9 1-262, looked up)
chain: MKKRDILTPIGFVLCFGLVLWGMASGGSNLKVFWDVASVFITIGGSMAAMLITYPMDEFKRLLIVIRQTFKDNGMSNIDVIQNFVDLSRKARREGLLSLEDAINNLTDDYMKKGLRMVVDGIEPETIREIMELEIDEMEKRHKSGADMLKTWGGYAPAFGMVGTLIGLIQMLANLTDSSTIASGMGKALITTFYGSLMANAVFNPMGANLMFKSGVEATTREMVLEGVLAIQSGVNPRIMEEKLVSYLSPPERQAYSKVQVS
notes: MotA of Clostridium sporogenes 388 (DSM 795), residues 1–262; several linker lengths were tried) to FliG 239–333 on one chain; also called MotA component; source: E. coli MT56, pT12 vector, co-expressed with MotB, purified (LMNG, Strep-Tactin XT, Superose 6)
- stoichiometry N [9]: 5
